According to patent US20230235012A1 (ALPINE IMMUNE SCIENCES, published 2023):

Assays:
[1] = target: T1, human CD28, full-length, expressed on transfected Expi293 cells (human, UniProt P10747 19-220); experiment: flow cytometry, 100 nM, Expi293 cells with human CD28
T1 construct: whole, on cells

[2] = target: T2, human CTLA-4, full-length, expressed on transfected Expi293 cells (human, UniProt P16410 36-223); experiment: flow cytometry, 100 nM, Expi293 cells with human CTLA-4
T2 construct: whole, on cells
T2 sequence (P16410 36-223): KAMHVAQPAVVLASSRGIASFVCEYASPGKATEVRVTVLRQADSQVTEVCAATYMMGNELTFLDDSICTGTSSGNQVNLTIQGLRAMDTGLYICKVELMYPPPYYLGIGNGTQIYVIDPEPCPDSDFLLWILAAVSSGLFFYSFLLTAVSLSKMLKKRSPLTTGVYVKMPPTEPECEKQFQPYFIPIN

| Binder | MFI [1] [MFI] | MFI [2] [MFI] |
| --- | --- | --- |
| variant ICOSL IgV-Fc fusion N52A/N57H/Q100S (Fc fusion) DTQEKEVRAMVGSDVELSCACPEGSRFDLNDVYVYWQTSESKTVVTYHIPQASSLEHVDSRYRNRALMSPAGMLRGDFSLRLFNVTPQDEQKFHCLVLSSSLGFQEVLSVEVTLHVAANFSVGSGGGGSEPKSSDKTHTCPPCPAPEAEGAPSVFLFPPKPKDTLMISRTPEVTCVVVDVSHEDPEVKFNWYVDGVEVHNAKTKPREEQYNSTYRVVSVLTVLHQDWLNGKEYKCKVSNKALPAPIEKTISKAKGQPREPQVYTLPPSREEMTKNQVSLTCLVKGFYPSDIAVEWESNGQPENNYKTTPPVLDSDGSFFLYSKLTVDKSRWQQGNVFSCSVMHEALHNHYTQKSLSLSPG | 159000 | 321000 |
| variant ICOSL IgV-Fc fusion N52R/N57Y/Q100P (Fc fusion) DTQEKEVRAMVGSDVELSCACPEGSRFDLNDVYVYWQTSESKTVVTYHIPQRSSLEYVDSRYRNRALMSPAGMLRGDFSLRLFNVTPQDEQKFHCLVLSPSLGFQEVLSVEVTLHVAANFSVGSGGGGSEPKSSDKTHTCPPCPAPEAEGAPSVFLFPPKPKDTLMISRTPEVTCVVVDVSHEDPEVKFNWYVDGVEVHNAKTKPREEQYNSTYRVVSVLTVLHQDWLNGKEYKCKVSNKALPAPIEKTISKAKGQPREPQVYTLPPSREEMTKNQVSLTCLVKGFYPSDIAVEWESNGQPENNYKTTPPVLDSDGSFFLYSKLTVDKSRWQQGNVFSCSVMHEALHNHYTQKSLSLSPG | 133000 | 502000 |
| variant ICOSL IgV-Fc fusion N52R/N57F/Q100N (Fc fusion) DTQEKEVRAMVGSDVELSCACPEGSRFDLNDVYVYWQTSESKTVVTYHIPQRSSLEFVDSRYRNRALMSPAGMLRGDFSLRLFNVTPQDEQKFHCLVLSNSLGFQEVLSVEVTLHVAANFSVGSGGGGSEPKSSDKTHTCPPCPAPEAEGAPSVFLFPPKPKDTLMISRTPEVTCVVVDVSHEDPEVKFNWYVDGVEVHNAKTKPREEQYNSTYRVVSVLTVLHQDWLNGKEYKCKVSNKALPAPIEKTISKAKGQPREPQVYTLPPSREEMTKNQVSLTCLVKGFYPSDIAVEWESNGQPENNYKTTPPVLDSDGSFFLYSKLTVDKSRWQQGNVFSCSVMHEALHNHYTQKSLSLSPG | 161000 | 233000 |
| variant ICOSL IgV-Fc fusion N52R/N57F/Q100P (Fc fusion) DTQEKEVRAMVGSDVELSCACPEGSRFDLNDVYVYWQTSESKTVVTYHIPQRSSLEFVDSRYRNRALMSPAGMLRGDFSLRLFNVTPQDEQKFHCLVLSPSLGFQEVLSVEVTLHVAANFSVGSGGGGSEPKSSDKTHTCPPCPAPEAEGAPSVFLFPPKPKDTLMISRTPEVTCVVVDVSHEDPEVKFNWYVDGVEVHNAKTKPREEQYNSTYRVVSVLTVLHQDWLNGKEYKCKVSNKALPAPIEKTISKAKGQPREPQVYTLPPSREEMTKNQVSLTCLVKGFYPSDIAVEWESNGQPENNYKTTPPVLDSDGSFFLYSKLTVDKSRWQQGNVFSCSVMHEALHNHYTQKSLSLSPG | 154000 | 504000 |
| variant ICOSL IgV-Fc fusion N52R/N57W (Fc fusion) DTQEKEVRAMVGSDVELSCACPEGSRFDLNDVYVYWQTSESKTVVTYHIPQRSSLEWVDSRYRNRALMSPAGMLRGDFSLRLFNVTPQDEQKFHCLVLSQSLGFQEVLSVEVTLHVAANFSVGSGGGGSEPKSSDKTHTCPPCPAPEAEGAPSVFLFPPKPKDTLMISRTPEVTCVVVDVSHEDPEVKFNWYVDGVEVHNAKTKPREEQYNSTYRVVSVLTVLHQDWLNGKEYKCKVSNKALPAPIEKTISKAKGQPREPQVYTLPPSREEMTKNQVSLTCLVKGFYPSDIAVEWESNGQPENNYKTTPPVLDSDGSFFLYSKLTVDKSRWQQGNVFSCSVMHEALHNHYTQKSLSLSPG | 137000 | 318000 |
| variant ICOSL IgV-Fc fusion N52D/Q100S (Fc fusion) DTQEKEVRAMVGSDVELSCACPEGSRFDLNDVYVYWQTSESKTVVTYHIPQDSSLENVDSRYRNRALMSPAGMLRGDFSLRLFNVTPQDEQKFHCLVLSSSLGFQEVLSVEVTLHVAANFSVGSGGGGSEPKSSDKTHTCPPCPAPEAEGAPSVFLFPPKPKDTLMISRTPEVTCVVVDVSHEDPEVKFNWYVDGVEVHNAKTKPREEQYNSTYRVVSVLTVLHQDWLNGKEYKCKVSNKALPAPIEKTISKAKGQPREPQVYTLPPSREEMTKNQVSLTCLVKGFYPSDIAVEWESNGQPENNYKTTPPVLDSDGSFFLYSKLTVDKSRWQQGNVFSCSVMHEALHNHYTQKSLSLSPG | 95700 | 333000 |
| variant ICOSL IgV-Fc fusion N52R/N57F/Q100R (Fc fusion) DTQEKEVRAMVGSDVELSCACPEGSRFDLNDVYVYWQTSESKTVVTYHIPQRSSLEFVDSRYRNRALMSPAGMLRGDFSLRLFNVTPQDEQKFHCLVLSRSLGFQEVLSVEVTLHVAANFSVGSGGGGSEPKSSDKTHTCPPCPAPEAEGAPSVFLFPPKPKDTLMISRTPEVTCVVVDVSHEDPEVKFNWYVDGVEVHNAKTKPREEQYNSTYRVVSVLTVLHQDWLNGKEYKCKVSNKALPAPIEKTISKAKGQPREPQVYTLPPSREEMTKNQVSLTCLVKGFYPSDIAVEWESNGQPENNYKTTPPVLDSDGSFFLYSKLTVDKSRWQQGNVFSCSVMHEALHNHYTQKSLSLSPG | 185000 | 464000 |
| variant ICOSL IgV-Fc fusion N52S/N57A/Q100A (Fc fusion) DTQEKEVRAMVGSDVELSCACPEGSRFDLNDVYVYWQTSESKTVVTYHIPQSSSLEAVDSRYRNRALMSPAGMLRGDFSLRLFNVTPQDEQKFHCLVLSASLGFQEVLSVEVTLHVAANFSVGSGGGGSEPKSSDKTHTCPPCPAPEAEGAPSVFLFPPKPKDTLMISRTPEVTCVVVDVSHEDPEVKFNWYVDGVEVHNAKTKPREEQYNSTYRVVSVLTVLHQDWLNGKEYKCKVSNKALPAPIEKTISKAKGQPREPQVYTLPPSREEMTKNQVSLTCLVKGFYPSDIAVEWESNGQPENNYKTTPPVLDSDGSFFLYSKLTVDKSRWQQGNVFSCSVMHEALHNHYTQKSLSLSPG | 98200 | 233000 |
| variant ICOSL IgV-Fc fusion N52P/N57P (Fc fusion) DTQEKEVRAMVGSDVELSCACPEGSRFDLNDVYVYWQTSESKTVVTYHIPQPSSLEPVDSRYRNRALMSPAGMLRGDFSLRLFNVTPQDEQKFHCLVLSQSLGFQEVLSVEVTLHVAANFSVGSGGGGSEPKSSDKTHTCPPCPAPEAEGAPSVFLFPPKPKDTLMISRTPEVTCVVVDVSHEDPEVKFNWYVDGVEVHNAKTKPREEQYNSTYRVVSVLTVLHQDWLNGKEYKCKVSNKALPAPIEKTISKAKGQPREPQVYTLPPSREEMTKNQVSLTCLVKGFYPSDIAVEWESNGQPENNYKTTPPVLDSDGSFFLYSKLTVDKSRWQQGNVFSCSVMHEALHNHYTQKSLSLSPG | 21000 |  |
| variant ICOSL IgV-Fc fusion N52D/N57A/Q100A (Fc fusion) DTQEKEVRAMVGSDVELSCACPEGSRFDLNDVYVYWQTSESKTVVTYHIPQDSSLEAVDSRYRNRALMSPAGMLRGDFSLRLFNVTPQDEQKFHCLVLSASLGFQEVLSVEVTLHVAANFSVGSGGGGSEPKSSDKTHTCPPCPAPEAEGAPSVFLFPPKPKDTLMISRTPEVTCVVVDVSHEDPEVKFNWYVDGVEVHNAKTKPREEQYNSTYRVVSVLTVLHQDWLNGKEYKCKVSNKALPAPIEKTISKAKGQPREPQVYTLPPSREEMTKNQVSLTCLVKGFYPSDIAVEWESNGQPENNYKTTPPVLDSDGSFFLYSKLTVDKSRWQQGNVFSCSVMHEALHNHYTQKSLSLSPG | 138000 | 340000 |
| variant ICOSL IgV-Fc fusion N52S/N57L/Q100G (Fc fusion) DTQEKEVRAMVGSDVELSCACPEGSRFDLNDVYVYWQTSESKTVVTYHIPQSSSLELVDSRYRNRALMSPAGMLRGDFSLRLFNVTPQDEQKFHCLVLSGSLGFQEVLSVEVTLHVAANFSVGSGGGGSEPKSSDKTHTCPPCPAPEAEGAPSVFLFPPKPKDTLMISRTPEVTCVVVDVSHEDPEVKFNWYVDGVEVHNAKTKPREEQYNSTYRVVSVLTVLHQDWLNGKEYKCKVSNKALPAPIEKTISKAKGQPREPQVYTLPPSREEMTKNQVSLTCLVKGFYPSDIAVEWESNGQPENNYKTTPPVLDSDGSFFLYSKLTVDKSRWQQGNVFSCSVMHEALHNHYTQKSLSLSPG | 71900 | 79400 |
| variant ICOSL IgV-Fc fusion N52G/N57P/Q100D (Fc fusion) DTQEKEVRAMVGSDVELSCACPEGSRFDLNDVYVYWQTSESKTVVTYHIPQGSSLEPVDSRYRNRALMSPAGMLRGDFSLRLFNVTPQDEQKFHCLVLSDSLGFQEVLSVEVTLHVAANFSVGSGGGGSEPKSSDKTHTCPPCPAPEAEGAPSVFLFPPKPKDTLMISRTPEVTCVVVDVSHEDPEVKFNWYVDGVEVHNAKTKPREEQYNSTYRVVSVLTVLHQDWLNGKEYKCKVSNKALPAPIEKTISKAKGQPREPQVYTLPPSREEMTKNQVSLTCLVKGFYPSDIAVEWESNGQPENNYKTTPPVLDSDGSFFLYSKLTVDKSRWQQGNVFSCSVMHEALHNHYTQKSLSLSPG | 5720 | 10200 |
| variant ICOSL IgV-Fc fusion N52T/N57K/Q100P (Fc fusion) DTQEKEVRAMVGSDVELSCACPEGSRFDLNDVYVYWQTSESKTVVTYHIPQTSSLEKVDSRYRNRALMSPAGMLRGDFSLRLFNVTPQDEQKFHCLVLSPSLGFQEVLSVEVTLHVAANFSVGSGGGGSEPKSSDKTHTCPPCPAPEAEGAPSVFLFPPKPKDTLMISRTPEVTCVVVDVSHEDPEVKFNWYVDGVEVHNAKTKPREEQYNSTYRVVSVLTVLHQDWLNGKEYKCKVSNKALPAPIEKTISKAKGQPREPQVYTLPPSREEMTKNQVSLTCLVKGFYPSDIAVEWESNGQPENNYKTTPPVLDSDGSFFLYSKLTVDKSRWQQGNVFSCSVMHEALHNHYTQKSLSLSPG | 88700 | 78300 |
| variant ICOSL IgV-Fc fusion N52T/N57Y/Q100A (Fc fusion) DTQEKEVRAMVGSDVELSCACPEGSRFDLNDVYVYWQTSESKTVVTYHIPQTSSLEYVDSRYRNRALMSPAGMLRGDFSLRLFNVTPQDEQKFHCLVLSASLGFQEVLSVEVTLHVAANFSVGSGGGGSEPKSSDKTHTCPPCPAPEAEGAPSVFLFPPKPKDTLMISRTPEVTCVVVDVSHEDPEVKFNWYVDGVEVHNAKTKPREEQYNSTYRVVSVLTVLHQDWLNGKEYKCKVSNKALPAPIEKTISKAKGQPREPQVYTLPPSREEMTKNQVSLTCLVKGFYPSDIAVEWESNGQPENNYKTTPPVLDSDGSFFLYSKLTVDKSRWQQGNVFSCSVMHEALHNHYTQKSLSLSPG | 161000 | 341000 |
